Data reported in patent US20120121596A1 (published 2012).

How the values were obtained:
[1] = target: HER3 on cells (MCF7 cells; MDA-175 cells) (UniProt P21860 20-1342, limits assumed); experiment: cell-based or functional assay
[2] = target: T1, Erbitux; experiment: direct phage ELISA, proteins coated at 2 µg/ml, phage-Fab supernatant, OD450;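 further: specificity test of dual-activity clones, with binding assessed across an antigen panel to check whether each recognises only its cognate target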
T1 construct: also called cetuximab; C225; not shown: the constant regions

[3] = target: T2, BSA (bovine, UniProt P02769); experiment: as above
T2 construct: also called bovine serum albumin

[4] = target: T3, hEGFR-ECD (human, UniProt P00533 25-645); experiment: as above
T3 construct: extracellular domain

[5] = target: T4, HER2-ECD (human, UniProt P04626 23-652); experiment: as above
T4 construct: extracellular domain

[6] = target: T5, HER3-ECD-Fc (human, UniProt P21860 20-643, limits assumed); experiment: as above
T5 construct: extracellular domain; also called HER3-FC; HER3-IgG

[7] = target: T6, HER4-ECD-Fc (human, UniProt Q15303 26-651, limits assumed); experiment: as above
T6 construct: extracellular domain
T6 sequence (looked up): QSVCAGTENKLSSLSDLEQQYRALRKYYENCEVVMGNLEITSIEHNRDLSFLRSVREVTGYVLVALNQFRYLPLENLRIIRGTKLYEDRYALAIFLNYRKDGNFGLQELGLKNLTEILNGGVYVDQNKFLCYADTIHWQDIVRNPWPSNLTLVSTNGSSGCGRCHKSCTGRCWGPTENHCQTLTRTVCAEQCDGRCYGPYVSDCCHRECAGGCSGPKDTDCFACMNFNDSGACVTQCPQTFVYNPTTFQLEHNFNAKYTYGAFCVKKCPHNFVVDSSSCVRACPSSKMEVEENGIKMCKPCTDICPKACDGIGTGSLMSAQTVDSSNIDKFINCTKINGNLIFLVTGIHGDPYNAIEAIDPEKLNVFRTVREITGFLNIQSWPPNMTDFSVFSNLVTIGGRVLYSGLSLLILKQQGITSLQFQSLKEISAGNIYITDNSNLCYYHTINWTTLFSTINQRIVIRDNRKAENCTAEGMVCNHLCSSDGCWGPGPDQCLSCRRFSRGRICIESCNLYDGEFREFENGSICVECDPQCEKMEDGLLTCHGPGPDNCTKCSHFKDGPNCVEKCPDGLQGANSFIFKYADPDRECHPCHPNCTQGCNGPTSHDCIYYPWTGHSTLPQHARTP

[8] = target: HER3 (form not given) (human, UniProt P21860 20-643, limits assumed); experiment: affinity maturation of DL11
[9] = target: T7, Xolair; experiment: direct phage ELISA, proteins coated at 2 µg/ml, phage-Fab supernatant, OD450;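 further: specificity test of dual-activity clones, with binding assessed across an antigen panel to check whether each recognises only its cognate target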
T7 construct: not shown: the constant regions

[10] = target: T8, hEGFR-ECD-Fc (human EGFR extracellular domain fused to an Fc region of human IgG1) (human, UniProt P00533 25-645); experiment: as above
T8 construct: extracellular domain; not shown: Fc region of human IgG1

[11] = target: T3, hEGFR-ECD; experiment: phage IC50 (solution competition ELISA), compared to D1.5-201
[12] = target: T4, HER2-ECD; experiment: as above
[13] = target: T9, mHER3-Fc; experiment: direct phage ELISA on coated proteins as in Example 5, OD450
T9 chain: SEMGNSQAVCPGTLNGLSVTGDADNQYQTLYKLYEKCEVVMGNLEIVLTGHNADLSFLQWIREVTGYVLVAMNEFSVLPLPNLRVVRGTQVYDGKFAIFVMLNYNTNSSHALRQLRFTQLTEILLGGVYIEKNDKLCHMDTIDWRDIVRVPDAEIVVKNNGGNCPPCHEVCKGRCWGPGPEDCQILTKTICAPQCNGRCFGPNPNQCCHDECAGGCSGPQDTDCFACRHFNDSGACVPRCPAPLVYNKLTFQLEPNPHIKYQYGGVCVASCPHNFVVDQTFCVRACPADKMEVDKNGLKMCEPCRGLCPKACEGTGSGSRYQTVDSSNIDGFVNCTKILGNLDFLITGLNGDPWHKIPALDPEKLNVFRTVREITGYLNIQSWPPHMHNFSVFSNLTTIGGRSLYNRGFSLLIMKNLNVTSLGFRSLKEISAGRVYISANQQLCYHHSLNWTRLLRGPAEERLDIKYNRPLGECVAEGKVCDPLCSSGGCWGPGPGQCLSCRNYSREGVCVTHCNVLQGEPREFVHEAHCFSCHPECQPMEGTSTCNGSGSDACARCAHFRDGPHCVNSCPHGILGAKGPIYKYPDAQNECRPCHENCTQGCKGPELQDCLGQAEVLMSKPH

[14] = target: T10, TGF-α; experiment: as above
T10 construct: also called transforming growth factor alpha

[15] = target: T2, BSA; experiment: as above
[16] = target: T7, Xolair; experiment: as above
[17] = target: T4, HER2-ECD; experiment: as above
[18] = target: T6, HER4-ECD-Fc; experiment: as above
[19] = target: T3, hEGFR-ECD; experiment: phage solution binding competition ELISA as in Example 1, antigen in solution varied
[20] = target: T5, HER3-ECD-Fc; experiment: as above

T2 sequence (P02769 25-607 limits assumed): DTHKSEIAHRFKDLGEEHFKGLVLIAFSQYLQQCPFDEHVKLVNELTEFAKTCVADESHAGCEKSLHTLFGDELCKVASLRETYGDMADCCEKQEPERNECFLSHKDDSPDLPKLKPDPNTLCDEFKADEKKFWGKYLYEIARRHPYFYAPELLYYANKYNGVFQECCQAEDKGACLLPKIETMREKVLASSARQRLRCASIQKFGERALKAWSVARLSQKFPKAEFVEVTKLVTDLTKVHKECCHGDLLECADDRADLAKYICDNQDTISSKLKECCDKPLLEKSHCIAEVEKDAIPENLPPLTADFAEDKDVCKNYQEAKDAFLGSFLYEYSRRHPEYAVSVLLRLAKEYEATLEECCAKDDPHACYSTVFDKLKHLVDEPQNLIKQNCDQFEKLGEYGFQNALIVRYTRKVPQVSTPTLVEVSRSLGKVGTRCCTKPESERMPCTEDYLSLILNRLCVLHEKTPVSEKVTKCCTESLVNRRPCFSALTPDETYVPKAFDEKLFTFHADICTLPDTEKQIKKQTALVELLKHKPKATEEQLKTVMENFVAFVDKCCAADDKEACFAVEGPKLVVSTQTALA

B1: DL11 (mIgG2A) (bispecific antibody, V domains shown)
VH: EVQLVESGGGLVQPGGSLRLSCAASGFTLSGDWIHWVRQAPGKGLEWLGEISAAGGYTDYADSVKGRFTISADTSKNTAYLQMNSLRAEDTAVYYCARESRVSFEAAMDYWGQGTLVTVSS
VL: DIQMTQSPSSLSASVGDRVTITCRASQDLATDVAWYQQKPGKAPKLLIYSASFLYSGVPSRFSGSGSGTDFTLTISSLQPEDFATYYCQQSEPEPYTFGQGTKVEIKR
IC50 of inhibition of MDA-175 cell proliferation [1]: 0.8 to 1 µg/mL

B2: D1.5-113 (phage-displayed Fab clone) (Fab, V domains shown)
VH: EVQLVESGGGLVQPGGSLRLSCAASGFTFTGNWIHWVRQAPGKGLEWVGEISPSGGYTDYADSVKGRFTISADTSKNTAYLQMNSLRAEDTAVYYCARESRVSYEAAMDYWGQGTLVTVSS
VL: DIQMTQSPSSLSASVGDRVTITCRASQSLLASHDGTPWVAWYQQKPGKAPKLLIYDASYLYSGVPSRFSGSGSGTDFTLTISSLQPEDFATYYCQQSTFAPYTFGQGTKVEIKR
notes: EGFR/HER3 clone
binding result [2]: no binding
binding result [3]: no binding
binding result [4]: binds
binding result [5]: no binding
binding result [6]: binds
binding result [7]: no binding

B3: DL3-11f (antibody, V domains shown)
VH: EVQLVESGGGLVQPGGSLRLSCAASGFTLSGDWIHWVRQAPGKGLEWVGEISAAGGYTDYADSVKGRFTISADTSKNTAYLQMNSLRAEDTAVYYCARESKVSFEAAMDYWGQGTLVTVSS
VL: DIQMTQSPSSLSASVGDRVTITCRASQNIATDVAWYQQKPGKAPKLLIYSASFLYSGVPSRFSGSGSGTDFTLTISSLQPEDFATYYCQQSEPEPYTFGQGTKVEIKR
binding result [8]: binds

B4: D1.5-400 (phage-displayed Fab clone) (Fab, V domains shown)
VH: EVQLVESGGGLVQPGGSLRLSCAASGFTFTGNWIHWVRQAPGKGLEWVGEISPSGGYTDYADSVKGRFTISADTSKNTAYLQMNSLRAEDTAVYYCARESRVSYEAAMDYWGQGTLVTVSS
VL: DIQMTQSPSSLSASVGDRVTITCRASQDVLFYGNVAWYQQKPGKAPKLLIYDGSYLYSGVPSRFSGSGSGTDFTLTISSLQPEDFATYYCQQSYPAPYTFGQGTKVEIKR
notes: EGFR/HER4 clone
binding result [3]: no binding
binding result [9]: no binding
binding result [10]: binds
binding result [5]: no binding
binding result [6]: no binding
binding result [7]: binds

B5: D1.5-201-3 (phage-displayed Fab clone) (Fab, V domains shown)
VH: EVQLVESGGGLVQPGGSLRLSCAASGFTFTGNWIHWVRQAPGKGLEWVGEISPSGGYTDYADSVKGRFTISADTSKNTAYLQMNSLRAEDTAVYYCARESRVSYEAAMDYWGQGTLVTVSS
VL: DIQMTQSPSSLSASVGDRVTITCRASQSLWAAYFAPVAWYQQKPGKAPKLLIYDGSYLYSGVPSRFSGSGSGTDFTLTISSLQPEDFATYYCQQRLPSPYTFGQGTKVEIKR
binding result [11]: binds
binding result [12]: binds

B6: D1.5-201-2 (phage-displayed Fab clone) (Fab, V domains shown)
VH: EVQLVESGGGLVQPGGSLRLSCAASGFTFTGNWIHWVRQAPGKGLEWVGEISPSGGYTDYADSVKGRFTISADTSKNTAYLQMNSLRAEDTAVYYCARESRVSYEAAMDYWGQGTLVTVSS
VL: DIQMTQSPSSLSASVGDRVTITCRANQSIAGAYYAPVAWYQQKPGKAPKLLIYDGYFLYSGVPSRFSGSGSGTDFTLTISSLQPEDFATYYCQQRLPSPYTFGQGTKVEIKR
binding result [11]: binds
binding result [12]: binds

B7: DL7 (phage-displayed Fab clone) (Fab, V domains shown)
VH: EVQLVESGGGLVQPGGSLRLSCAASGFTLSGDWIHWVRQAPGKGLEWVGEISAAGGYTDYADSVKGRFTISADTSKNTAYLQMNSLRAEDTAVYYCAREARVSYEAAMDYWGQGTLVTVSS
VL: DIQMTQSPSSLSASVGDRVTITCRASQDLATDVAWYQQKPGKAPKLLIYSASFLYSGVPSRFSGSGSGTDFTLTISSLQPEDFATYYCQQSEPEPYTFGQGTKVEIKR
binding result [13]: no binding
binding result [14]: no binding
binding result [15]: no binding
binding result [16]: no binding
binding result [17]: no binding
binding result [18]: no binding
IC50 [19]: 6.1 nM
IC50 [20]: 0.25 nM

B8: DL3-11b (antibody, V domains shown)
VH: EVQLVESGGGLVQPGGSLRLSCAASGFTLSGDWIHWVRQAPGKGLEWLGEISAAGGYTDYADSVKGRFTISADTSKNTAYLQMNSLRAEDTAVYYCARESKVSFEAAMDYWGQGTLVTVSS
VL: DIQMTQSPSSLSASVGDRVTITCRASQNIATDVAWYQQKPGKAPKLLIYSASFLYSGVPSRFSGSGSGTDFTLTISSLQPEDFATYYCQQSEPEPYTFGQGTKVEIKR
notes: also called DL3-11fb
binding result [8]: binds

B9: DL11 (phage-displayed Fab clone) (Fab, V domains shown)
VH: EVQLVESGGGLVQPGGSLRLSCAASGFTLSGDWIHWVRQAPGKGLEWLGEISAAGGYTDYADSVKGRFTISADTSKNTAYLQMNSLRAEDTAVYYCARESRVSFEAAMDYWGQGTLVTVSS
VL: DIQMTQSPSSLSASVGDRVTITCRASQDLATDVAWYQQKPGKAPKLLIYSASFLYSGVPSRFSGSGSGTDFTLTISSLQPEDFATYYCQQSEPEPYTFGQGTKVEIKR
notes: single Fab on phage
binding result [13]: no binding
binding result [14]: no binding
binding result [15]: no binding
binding result [16]: no binding
binding result [18]: no binding
IC50 [19]: 5.7 nM
IC50 [20]: 0.43 nM

B10: DL11b (bispecific antibody, V domains shown)
VH: EVQLVESGGGLVQPGGSLRLSCAASGFTLSGDWIHWVRQAPGKGLEWLGEISAAGGYTDYADSVKGRFTISADTSKNTAYLQMNSLRAEDTAVYYCARESRVSFEAAMDYWGQGTLVTVSS
VL: DIQMTQSPSSLSASVGDRVTITCRASQNIATDVAWYQQKPGKAPKLLIYSASFLYSGVPSRFSGSGSGTDFTLTISSLQPEDFATYYCQQSEPEPYTFGQGTKVEIKR
IC50 of inhibition of MDA-175 cell proliferation [1]: 0.8 to 1 µg/mL
